# In PMC9082959, “Mechanism of Assembly of the Non-Covalent Spectrin Tetramerization Domain from Intrinsically Disordered Partners” (Journal of molecular biology, 2013):
# T1: β16β17 Y28L (human, UniProt P11277 1898-2083, Y2031L)
# T1 construct: erythrocyte β-spectrin, human, residues 1898-2083 (β16β17); mutant of m2; also called Y2031L; source: E. coli C41(DE3), purified (Ni2+ agarose, thrombin cleavage, gel filtration)
# T1 sequence (looked up): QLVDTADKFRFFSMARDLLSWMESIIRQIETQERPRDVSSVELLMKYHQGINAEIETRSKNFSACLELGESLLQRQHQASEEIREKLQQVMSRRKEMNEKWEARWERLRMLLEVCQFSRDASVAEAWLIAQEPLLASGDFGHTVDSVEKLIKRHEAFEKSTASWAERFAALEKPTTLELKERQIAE
# T2: β16β17 F11L (human, UniProt P11277 1898-2083, F2014L)
# T2 construct: erythrocyte β-spectrin, human, residues 1898-2083 (β16β17); mutant of m2; also called F2014L; source: E. coli C41(DE3), purified (Ni2+ agarose, thrombin cleavage, gel filtration)
# T2 sequence (looked up): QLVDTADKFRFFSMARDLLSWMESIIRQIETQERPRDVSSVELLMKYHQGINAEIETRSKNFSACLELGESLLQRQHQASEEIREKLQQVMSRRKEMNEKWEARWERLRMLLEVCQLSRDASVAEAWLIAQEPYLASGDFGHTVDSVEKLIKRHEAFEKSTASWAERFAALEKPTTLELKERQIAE
# T3: β16β17 A18G (human, UniProt P11277 1898-2083, A2021G)
# T3 construct: erythrocyte β-spectrin, human, residues 1898-2083 (β16β17); mutant of m2; also called A2021G; source: E. coli C41(DE3), purified (Ni2+ agarose, thrombin cleavage, gel filtration)
# T3 sequence (looked up): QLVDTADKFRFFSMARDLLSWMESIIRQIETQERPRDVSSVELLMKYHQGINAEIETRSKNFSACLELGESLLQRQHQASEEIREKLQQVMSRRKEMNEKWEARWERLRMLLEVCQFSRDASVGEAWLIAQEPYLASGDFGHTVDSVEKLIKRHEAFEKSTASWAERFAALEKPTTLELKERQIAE
# T4: β16β17 Q25A (human, UniProt P11277 1898-2083, Q2028A)
# T4 construct: erythrocyte β-spectrin, human, residues 1898-2083 (β16β17); mutant of m2; also called Q2028A; source: E. coli C41(DE3), purified (Ni2+ agarose, thrombin cleavage, gel filtration)
# T4 sequence (looked up): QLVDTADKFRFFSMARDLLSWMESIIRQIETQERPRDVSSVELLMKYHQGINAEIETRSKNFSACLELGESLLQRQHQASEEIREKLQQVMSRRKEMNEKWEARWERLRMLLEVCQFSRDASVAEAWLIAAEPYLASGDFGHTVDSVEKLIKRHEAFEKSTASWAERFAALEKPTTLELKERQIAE
# T5: β16β17 F11A (human, UniProt P11277 1898-2083, F2014A)
# T5 construct: erythrocyte β-spectrin, human, residues 1898-2083 (β16β17); mutant of m2; also called F2014A; source: E. coli C41(DE3), purified (Ni2+ agarose, thrombin cleavage, gel filtration)
# T5 sequence (looked up): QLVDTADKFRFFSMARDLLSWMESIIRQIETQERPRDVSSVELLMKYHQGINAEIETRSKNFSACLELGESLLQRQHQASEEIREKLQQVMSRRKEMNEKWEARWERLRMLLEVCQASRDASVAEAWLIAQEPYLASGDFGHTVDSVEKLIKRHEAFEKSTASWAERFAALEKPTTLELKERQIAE
# T6: β16β17 Y28A (human, UniProt P11277 1898-2083, Y2031A)
# T6 construct: erythrocyte β-spectrin, human, residues 1898-2083 (β16β17); mutant of m2; also called Y2031A; source: E. coli C41(DE3), purified (Ni2+ agarose, thrombin cleavage, gel filtration)
# T6 sequence (looked up): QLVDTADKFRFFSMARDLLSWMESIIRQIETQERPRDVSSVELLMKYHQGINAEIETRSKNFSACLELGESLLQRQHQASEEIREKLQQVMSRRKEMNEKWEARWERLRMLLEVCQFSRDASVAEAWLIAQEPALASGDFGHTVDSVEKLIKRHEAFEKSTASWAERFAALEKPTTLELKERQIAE
# B1: α0α1 (erythrocyte α-spectrin residues 2–163), wild type (domain or fragment, human, UniProt P02549 2-163, looked up)
# chain: EQFPKETVVESSGPKVLETAEEIQERRQEVLTRYQSFKERVAERGQKLEDSYHLQVFKRDADDLGKWIMEKVNILTDKSYEDPTNIQGKYQKHQSLEAEVQTKSRLMSELEKTREERFTMGHSAHEETKAHIEELRHLWDLLLELTLEKGDQLLRALKFQQY
# notes: synthetic gene (GenScript) in a modified pRSETA plasmid; also called α1α0; source: E. coli C41(DE3), purified (Ni2+ agarose, thrombin cleavage, gel filtration)
# Columns and labels:
# Experiment in all cases: ITC; β16β17 at 25–50 μM in the cell titrated with 15–20 injections to 2–2.5 eq of α0α1; one-site binding model; PBS (50 mM sodium phosphate, 150 mM NaCl, pH 7.04), 25 °C; mutants only against the wild-type partner
# Details in all cases: both partners purified
# [1] = biological target: T1, β16β17 Y28L
# [2] = biological target: T2, β16β17 F11L
# [3] = biological target: T3, β16β17 A18G
# [4] = biological target: T4, β16β17 Q25A
# [5] = biological target: T5, β16β17 F11A
# [6] = biological target: T6, β16β17 Y28A
binder,measurement,setting,value
B1,Ka,[1],170000 M⁻¹
same,Ka,[2],16000 M⁻¹
same,Ka,[3],130000 M⁻¹
same,Ka,[4],120000 M⁻¹
same,Ka,[5],6000 M⁻¹
same,Ka,[6],180000 M⁻¹
